Experimental findings from paper PMC9935876, “Structure of the planar cell polarity cadherins Fat4 and Dachsous1” (Nature Communications, 2023) are described below.

Conditions in all cases: both partners purified
The target in test [1] is T1, Human Fat4(EC1-4) F358A (human, UniProt Q6V0I7 43-475, F358A).
T1 construct: human Fat4, EC1-EC4, aa43-475, with F358A in EC4; also called Fat4F358A(EC1-4); Fat4F358A
T1 sequence: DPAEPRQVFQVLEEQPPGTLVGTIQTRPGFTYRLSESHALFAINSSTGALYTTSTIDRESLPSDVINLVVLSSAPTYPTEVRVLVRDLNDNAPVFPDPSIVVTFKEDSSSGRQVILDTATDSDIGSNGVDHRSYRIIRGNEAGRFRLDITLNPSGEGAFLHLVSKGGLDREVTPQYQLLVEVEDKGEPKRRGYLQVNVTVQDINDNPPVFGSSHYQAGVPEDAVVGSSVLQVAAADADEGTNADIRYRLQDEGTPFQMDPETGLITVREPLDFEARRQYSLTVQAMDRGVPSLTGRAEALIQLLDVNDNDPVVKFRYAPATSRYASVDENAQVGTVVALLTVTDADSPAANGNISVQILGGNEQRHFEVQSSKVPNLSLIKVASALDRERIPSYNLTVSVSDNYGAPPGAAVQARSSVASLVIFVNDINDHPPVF
The test is described as follows: ITC; MicroCal ITC200; Fat4 constructs 30 µM in the sample cell, Dchs1 constructs 300 µM as titrants; 20 °C; one set of sites.

In test [2] the target is T2, Human Fat4(EC1-4) R152A (human, UniProt Q6V0I7 43-475, R152A).
T2 construct: human Fat4, EC1-EC4, aa43-475, with R152A in EC2; also called Fat4R152A(EC1-4); Fat4R152A
T2 sequence: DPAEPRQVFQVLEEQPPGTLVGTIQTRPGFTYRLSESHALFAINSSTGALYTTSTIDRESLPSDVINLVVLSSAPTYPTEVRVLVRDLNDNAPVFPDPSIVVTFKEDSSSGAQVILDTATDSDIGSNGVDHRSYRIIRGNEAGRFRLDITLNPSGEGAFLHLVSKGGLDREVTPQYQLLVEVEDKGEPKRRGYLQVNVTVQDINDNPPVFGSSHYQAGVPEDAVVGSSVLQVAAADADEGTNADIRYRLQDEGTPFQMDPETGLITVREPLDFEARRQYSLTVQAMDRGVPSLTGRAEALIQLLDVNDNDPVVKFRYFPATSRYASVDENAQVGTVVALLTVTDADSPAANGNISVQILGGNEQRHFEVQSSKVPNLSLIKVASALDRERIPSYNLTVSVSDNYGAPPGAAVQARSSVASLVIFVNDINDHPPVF
Described as above.

The target in test [3] is T3, Human Fat4(EC1-4) (human, UniProt Q6V0I7 43-475).
T3 construct: human Fat4, extracellular cadherin domains EC1-EC4, aa43-475; A 3C protease site stands between the protein and the C-terminal BAP-tag and His6; also called WT
T3 sequence: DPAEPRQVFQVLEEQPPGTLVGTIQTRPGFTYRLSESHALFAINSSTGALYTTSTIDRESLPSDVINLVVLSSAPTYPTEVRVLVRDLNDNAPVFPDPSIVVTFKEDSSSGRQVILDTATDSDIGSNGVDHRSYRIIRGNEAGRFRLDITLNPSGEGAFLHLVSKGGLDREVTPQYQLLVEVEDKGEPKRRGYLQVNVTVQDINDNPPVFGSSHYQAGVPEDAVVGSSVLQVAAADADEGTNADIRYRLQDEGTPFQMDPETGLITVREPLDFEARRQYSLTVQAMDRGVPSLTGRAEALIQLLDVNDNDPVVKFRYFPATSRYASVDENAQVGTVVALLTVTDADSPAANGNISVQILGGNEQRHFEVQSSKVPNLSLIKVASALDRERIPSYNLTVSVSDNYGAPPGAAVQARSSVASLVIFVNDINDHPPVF
The test is described as above.

The target in test [4] is T4, Human Fat4F358A(EC1-4) (human, UniProt Q6V0I7 43-475, F358A).
T4 construct: Fat4, human, EC1-EC4, aa43-475, with F358A in EC4
T4 sequence: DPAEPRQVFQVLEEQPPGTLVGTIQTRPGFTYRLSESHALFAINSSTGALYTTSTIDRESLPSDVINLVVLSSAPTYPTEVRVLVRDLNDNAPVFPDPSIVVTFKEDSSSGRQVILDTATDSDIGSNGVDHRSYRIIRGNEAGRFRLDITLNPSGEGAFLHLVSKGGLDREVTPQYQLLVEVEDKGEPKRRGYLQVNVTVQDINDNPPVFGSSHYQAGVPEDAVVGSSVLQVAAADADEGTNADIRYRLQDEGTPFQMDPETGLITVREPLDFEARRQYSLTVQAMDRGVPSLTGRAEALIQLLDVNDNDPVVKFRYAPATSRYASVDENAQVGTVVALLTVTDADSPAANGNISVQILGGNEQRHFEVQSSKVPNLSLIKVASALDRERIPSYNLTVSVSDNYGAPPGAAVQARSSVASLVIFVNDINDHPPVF
As to the kind of experiment: ITC; MicroCal ITC200; Fat4 construct 30 µM in the sample cell, Dchs1 construct 300 µM as titrant; 20 °C; fitted with one set of sites; two independent experiments.

Test [5] concerns the target T5, Human Fat4(EC1-4) (human, UniProt Q6V0I7 43-475).
T5 construct: Fat4, human, EC1-EC4, aa43-475; Tags were cleaved only for the constructs meant for co-crystallisation; nothing is said for ITC; also called Fat4 EC1–EC4
T5 sequence: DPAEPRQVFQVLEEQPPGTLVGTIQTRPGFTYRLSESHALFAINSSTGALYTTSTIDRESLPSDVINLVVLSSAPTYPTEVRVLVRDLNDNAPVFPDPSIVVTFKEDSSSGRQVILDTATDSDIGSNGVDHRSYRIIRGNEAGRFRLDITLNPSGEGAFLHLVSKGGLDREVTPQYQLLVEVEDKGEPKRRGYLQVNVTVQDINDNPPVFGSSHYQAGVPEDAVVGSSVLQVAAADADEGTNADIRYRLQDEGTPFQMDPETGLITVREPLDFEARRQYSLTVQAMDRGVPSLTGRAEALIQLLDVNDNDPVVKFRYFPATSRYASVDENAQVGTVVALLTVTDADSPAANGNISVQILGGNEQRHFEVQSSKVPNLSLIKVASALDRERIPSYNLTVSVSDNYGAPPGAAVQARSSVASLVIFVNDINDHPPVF
The description is as above.

Test [6] deals with T5, Human Fat4(EC1-4). The test is described as above. This is another data set of the same source.

Where “and” joins values, the source holds several entries; their conditions need not be identical. Identical values can stand only once.

B1: Human Dchs1(EC1-4) (domain or fragment)
chain: DPQAGSLDLQIDEEQPAGTLIGDISAGLPAGTAAPLMYFISAQEGSGVGTDLAIDEHSGVVRTARVLDREQRDRYRFTAVTPDGATVEVTVRVADINDHAPAFPQARAALQVPEHTAFGTRYPLEPARDADAGRLGTQGYALSGDGAGETFRLETRPGPDGTPVPELVVTGELDRENRSHYMLQLEAYDGGSPPRRAQALLDVTLLDINDHAPAFNQSRYHAVVSESLAPGSPVLQVFASDADAGVNGAVTYEINRRQSEGDGPFSIDAHTGLLQLERPLDFEQRRVHELVVQARDGGAHPELGSAFVTVHVRDANDNQPSMTVIFLSADGSPQVSEAAPPGQLVARISVSDPDDGDFAHVNVSLEGGEGHFALSTQDSVIYLVCVARRLDREERDAYNLRVTATDSGSPPLRAEAAFVLHVTDVNDNAPAF
notes: human Dachsous1 (Dchs1), extracellular cadherin domains EC1-EC4, aa43-472; A 3C protease site stands between the protein and the C-terminal BAP-tag and His6; also called Dachsous1; WT
For B1, the “stoichiometry N” value in test [1] worked out at 0.915 ± 0.0119 sites; in test [2] it was 0.965 ± 0.0359 sites; in test [3] it was 1.06 ± 0.0114 sites.

B2: Human Dchs1(EC1-4) (domain or fragment)
chain: DPQAGSLDLQIDEEQPAGTLIGDISAGLPAGTAAPLMYFISAQEGSGVGTDLAIDEHSGVVRTARVLDREQRDRYRFTAVTPDGATVEVTVRVADINDHAPAFPQARAALQVPEHTAFGTRYPLEPARDADAGRLGTQGYALSGDGAGETFRLETRPGPDGTPVPELVVTGELDRENRSHYMLQLEAYDGGSPPRRAQALLDVTLLDINDHAPAFNQSRYHAVVSESLAPGSPVLQVFASDADAGVNGAVTYEINRRQSEGDGPFSIDAHTGLLQLERPLDFEQRRVHELVVQARDGGAHPELGSAFVTVHVRDANDNQPSMTVIFLSADGSPQVSEAAPPGQLVARISVSDPDDGDFAHVNVSLEGGEGHFALSTQDSVIYLVCVARRLDREERDAYNLRVTATDSGSPPLRAEAAFVLHVTDVNDNAPAF
notes: Dchs1 (Dachsous1), human, EC1-EC4, aa43-472; also called Dachsous1 EC1–EC4
In the case of B2, the Kd in test [4] is 950 nM and 770 nM; in test [5], 488 nM and 463 nM.

B3: Human Dchs1F79A(EC1-4) (domain or fragment)
chain: DPQAGSLDLQIDEEQPAGTLIGDISAGLPAGTAAPLMYAISAQEGSGVGTDLAIDEHSGVVRTARVLDREQRDRYRFTAVTPDGATVEVTVRVADINDHAPAFPQARAALQVPEHTAFGTRYPLEPARDADAGRLGTQGYALSGDGAGETFRLETRPGPDGTPVPELVVTGELDRENRSHYMLQLEAYDGGSPPRRAQALLDVTLLDINDHAPAFNQSRYHAVVSESLAPGSPVLQVFASDADAGVNGAVTYEINRRQSEGDGPFSIDAHTGLLQLERPLDFEQRRVHELVVQARDGGAHPELGSAFVTVHVRDANDNQPSMTVIFLSADGSPQVSEAAPPGQLVARISVSDPDDGDFAHVNVSLEGGEGHFALSTQDSVIYLVCVARRLDREERDAYNLRVTATDSGSPPLRAEAAFVLHVTDVNDNAPAF
notes: Dchs1 (Dachsous1), human, EC1-EC4, aa43-472, with F79A in EC1
Consider B3, for which the Kd in test [6] was 1560 nM and 2480 nM.
